We go through two molecules from patent publication EP4536686B1 (GENETHON, dated 2025).

In this test the target is T1, integrin heterodimer αVβ6 (ITGAV-B6) (human, UniProt P06756 31-1048; P18564 22-788).
T1 construct: whole, on cells; Species is read from the 'h' prefix of hITGAV and hITGB6; also called ITGAV-B6 heterodimers; hITGAV and hITGB6
Briefly: concluding sentence, resting on the infection and luciferase assay in 293_ITGAV-B6 cells; no direct binding assay.

T1 sequence (P06756 31-1048, chain 1 of 2): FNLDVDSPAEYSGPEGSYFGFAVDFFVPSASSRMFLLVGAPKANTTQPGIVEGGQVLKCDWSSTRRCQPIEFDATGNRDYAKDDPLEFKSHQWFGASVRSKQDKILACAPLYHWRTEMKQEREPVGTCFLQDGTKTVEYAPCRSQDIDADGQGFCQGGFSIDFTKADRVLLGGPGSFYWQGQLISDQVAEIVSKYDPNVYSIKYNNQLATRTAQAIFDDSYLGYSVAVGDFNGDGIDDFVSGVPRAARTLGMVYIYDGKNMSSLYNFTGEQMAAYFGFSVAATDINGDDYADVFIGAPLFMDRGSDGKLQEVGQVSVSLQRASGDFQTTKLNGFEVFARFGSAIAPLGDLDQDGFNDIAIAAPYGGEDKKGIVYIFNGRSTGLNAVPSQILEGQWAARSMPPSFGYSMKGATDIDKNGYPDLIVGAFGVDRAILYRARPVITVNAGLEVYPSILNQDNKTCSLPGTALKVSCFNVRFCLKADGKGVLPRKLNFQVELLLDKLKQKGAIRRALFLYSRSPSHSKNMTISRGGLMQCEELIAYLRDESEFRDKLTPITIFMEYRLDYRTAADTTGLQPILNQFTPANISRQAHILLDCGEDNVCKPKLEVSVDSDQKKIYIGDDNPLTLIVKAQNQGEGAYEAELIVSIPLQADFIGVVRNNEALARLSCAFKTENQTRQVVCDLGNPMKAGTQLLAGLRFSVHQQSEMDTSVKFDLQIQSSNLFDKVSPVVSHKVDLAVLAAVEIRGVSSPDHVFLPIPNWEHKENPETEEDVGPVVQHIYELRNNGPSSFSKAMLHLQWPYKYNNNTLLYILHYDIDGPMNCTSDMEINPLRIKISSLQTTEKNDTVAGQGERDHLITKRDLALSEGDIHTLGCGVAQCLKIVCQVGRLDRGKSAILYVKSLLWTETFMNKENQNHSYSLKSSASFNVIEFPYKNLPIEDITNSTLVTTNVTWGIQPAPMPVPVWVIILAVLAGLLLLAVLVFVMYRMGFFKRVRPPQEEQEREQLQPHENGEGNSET
T1 sequence (P18564 22-788, chain 2 of 2): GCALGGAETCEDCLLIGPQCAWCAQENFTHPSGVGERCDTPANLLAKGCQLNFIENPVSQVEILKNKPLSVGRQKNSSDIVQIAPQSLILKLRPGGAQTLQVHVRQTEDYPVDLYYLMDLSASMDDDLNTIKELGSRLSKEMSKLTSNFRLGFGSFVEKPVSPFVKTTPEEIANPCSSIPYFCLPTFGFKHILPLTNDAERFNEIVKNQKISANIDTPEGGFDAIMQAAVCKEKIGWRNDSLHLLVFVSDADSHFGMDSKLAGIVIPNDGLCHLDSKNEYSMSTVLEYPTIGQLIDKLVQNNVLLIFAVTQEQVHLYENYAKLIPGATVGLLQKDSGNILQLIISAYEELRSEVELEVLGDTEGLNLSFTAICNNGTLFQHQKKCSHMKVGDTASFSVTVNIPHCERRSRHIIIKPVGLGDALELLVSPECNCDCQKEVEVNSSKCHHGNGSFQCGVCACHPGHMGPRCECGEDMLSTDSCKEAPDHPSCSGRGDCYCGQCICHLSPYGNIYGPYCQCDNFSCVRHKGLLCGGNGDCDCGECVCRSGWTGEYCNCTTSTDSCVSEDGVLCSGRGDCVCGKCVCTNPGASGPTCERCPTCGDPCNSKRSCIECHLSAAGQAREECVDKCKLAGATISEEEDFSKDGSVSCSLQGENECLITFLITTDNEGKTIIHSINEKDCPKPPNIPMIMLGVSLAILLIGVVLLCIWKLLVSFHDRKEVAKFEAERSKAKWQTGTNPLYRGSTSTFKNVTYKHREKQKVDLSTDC

B1: AAV_Cap9rh74_VR4-4um9.Nat (other)
chain: MAADGYLPDWLEDNLSEGIREWWALKPGAPQPKANQQHQDNARGLVLPGYKYLGPGNGLDKGEPVNAADAAALEHDKAYDQQLKAGDNPYLKYNHADAEFQERLKEDTSFGGNLGRAVFQAKKRLLEPLGLVEEAAKTAPGKKRPVEQSPQEPDSSAGIGKSGAQPAKKRLNFGQTGDTESVPDPQPIGEPPAAPSGVGSLTMASGGGAPVADNNEGADGVGSSSGNWHCDSQWLGDRVITTSTRTWALPTYNNHLYKQISNSTSGGSSNDNAYFGYSTPWGYFDFNRFHCHFSPRDWQRLINNNWGFRPKRLNFKLFNIQVKEVTDNNGVKTIANNLTSTVQVFTDSDYQLPYVLGSAHEGCLPPFPADVFMIPQYGYLTLNDGSQAVGRSSFYCLEYFPSQMLRTGNNFQFSYEFENVPFHSSYAHSQSLDRLMNPLIDQYLYYLSRTQSTDGRGDLGRLGPQQLLFSQAGPNNMSAQAKNWLPGPCYRQQRVSTTLSQNNNSNFAWTGATKYHLNGRDSLVNPGVAMATHKDDEERFFPSSGVLMFGKQGAGKDNVDYSSVMLTSEEEIKTTNPVATEQYGVVADNLQQQNAAPIVGAVNSQGALPGMVWQNRDVYLQGPIWAKIPHTDGNFHPSPLMGGFGMKHPPPQILIKNTPVPADPPTAFNKDKLNSFITQYSTGQVSVEIEWELQKENSKRWNPEIQYTSNYYKSNNVEFAVNTEGVYSEPRPIGTRYLTRNL
notes: Tested as a whole recombinant AAV vector particle packaging CMV-GFP/Luc; also called Cap9rh74_VR4-4um9(LICA.01)
On to B1, for which the binding result was “binds”.

B2: AAV_Cap9rh74_VR4-5ffo.Nat (other)
chain: MAADGYLPDWLEDNLSEGIREWWALKPGAPQPKANQQHQDNARGLVLPGYKYLGPGNGLDKGEPVNAADAAALEHDKAYDQQLKAGDNPYLKYNHADAEFQERLKEDTSFGGNLGRAVFQAKKRLLEPLGLVEEAAKTAPGKKRPVEQSPQEPDSSAGIGKSGAQPAKKRLNFGQTGDTESVPDPQPIGEPPAAPSGVGSLTMASGGGAPVADNNEGADGVGSSSGNWHCDSQWLGDRVITTSTRTWALPTYNNHLYKQISNSTSGGSSNDNAYFGYSTPWGYFDFNRFHCHFSPRDWQRLINNNWGFRPKRLNFKLFNIQVKEVTDNNGVKTIANNLTSTVQVFTDSDYQLPYVLGSAHEGCLPPFPADVFMIPQYGYLTLNDGSQAVGRSSFYCLEYFPSQMLRTGNNFQFSYEFENVPFHSSYAHSQSLDRLMNPLIDQYLYYLSRTQSEPRRGDLATIGSQQLLFSQAGPNNMSAQAKNWLPGPCYRQQRVSTTLSQNNNSNFAWTGATKYHLNGRDSLVNPGVAMATHKDDEERFFPSSGVLMFGKQGAGKDNVDYSSVMLTSEEEIKTTNPVATEQYGVVADNLQQQNAAPIVGAVNSQGALPGMVWQNRDVYLQGPIWAKIPHTDGNFHPSPLMGGFGMKHPPPQILIKNTPVPADPPTAFNKDKLNSFITQYSTGQVSVEIEWELQKENSKRWNPEIQYTSNYYKSNNVEFAVNTEGVYSEPRPIGTRYLTRNL
notes: Tested as a whole recombinant AAV vector particle packaging CMV-GFP/Luc
With B2, the binding result is given as “binds”.
